Experimental data taken from the nanobody polyreactivity screen of Harvey et al. (2022).

Assay: yeast display, Sf9 membrane polyspecificity reagent, FACS + sequencing; frameworks hold sequencing errors
Outline: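 Synthetic nanobody libraries on Saccharomyces cerevisiae BJ5465 were galactose-induced for 36–48 hours, stained 1 hour at 4 °C with 10% biotinylated, detergent-solubilized Sf9 membrane reagent and enriched on streptavidin microbeads. FACS then separated cells into low and high (top ~1%) gates by anti-HA (expression) and streptavidin (reagent binding) fluorescence. Genes were colony-PCR amplified, MiSeq 2 × 250 sequenced and CDR-length filtered. A clone's polyreactivity label is that of its gate of origin.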

QVQLVESGGGLVQAGGSLRLSCAPSGFTFGYYAMGWYRQAPGKEMELVAAISSSGGSTYYADSVKGRFTISRDNAKKTVYLQMNSLKREVTAVYYCAVVVFSRVYRYFTSDYWGQGTQVTVSS
polyreactivity (PSR sort gate): high polyreactivity

QVQLVESGGGLVQAGGSLRLSCAASGFIFGKNALGWYRQAPGKERELVAVISWRGSSTYYADSVKGRFTISRDNAKNTVYLQMNSLKPEDTAVYYCAARYPARGTLYYWGQGTQVTVSS
polyreactivity (PSR sort gate): low polyreactivity

QVQLVDSGGGLVQAGGSLRLSCAASGRTFRYYDMGWYRPAPGEVREFVAAITWRGGSTYYADSVKGRFTISRDNAKNTVYSQMNSLKPEDTAVYYCATDSLRLYGGKRDLYYWGQGTQVTVSS
polyreactivity (PSR sort gate): low polyreactivity

QVQLVESVGGLVEAGGRLGISCDDSGIIFRVNTIGCYRQAPGKERELVARSTGAGNKYYADSVKGRFTISRDNAKTTVYLQMNSLKPKDTAVYYCAVREFDNRRVIFYYWGQGTQVTVLS
polyreactivity (PSR sort gate): high polyreactivity

QVQLVESGGGLVQAGGSLRLSCAASGLTFPYNAMGWYRQAPGKERELVAAISNGGGTYYADSVKGRFTISRDNAKNPVYLQMNSLKPEDTAVYYCAVDEYSRDYWRYYYWGQGTQVTVSS
polyreactivity (PSR sort gate): low polyreactivity

QVQLVESGGGLVQAGGSLRLSCAASGSTFTGYAMGWYRQAPGKERELVAAIDVSGATTYYADSVKGRFTISRDNAKNTVYLQMNSLKPEDTAVYYCATYATNSVAAYDYWGQGTQVTVSS
polyreactivity (PSR sort gate): low polyreactivity

QVQLVESGGGLVQAGGSLRLSCAASGSTFGYYAMGWYRQAPGKERELVAAITRGGGRTYYADSVKGRFTISRDNAKNTVYLQMNSLKPEDTAVYYCAAVEPTREYYYWGQGTQVTVSS
polyreactivity (PSR sort gate): high polyreactivity

QVQLVESGGGLVQAGGSLRVTCAASGNIFGYYAMGWYRQAPGKERELDAAISSGGTTSYADSVKGRFTISRDNAKNTVYLQLNSLKPEDTAVYYCAARDWYDGFYYWGQGTQVTVSS
polyreactivity (PSR sort gate): low polyreactivity

QVQLVESGGGLVQAGGSLRLSCAASGRIFSEYAMGWYRQAPGKERELVAAISRRGGRTYYADSVKGRFTISRDNAKNTVYLQMNSLKPEETAVYYCAAKIIWFTIRHGSAGFKYWGQGTQVTVSS
polyreactivity (PSR sort gate): high polyreactivity

QVQLVESGGGLVQAGGSLRLSCAASGRIFYYNAMGWYRQAPGKERDLVAAITYSGTSTYYADSVKGRFTISRDNAKNTVYLQINSLKPEDTAVYYCAVDSTDQAPPTYDYWGQGTQVTVSS
polyreactivity (PSR sort gate): low polyreactivity

QVQLVESGGGLVQAGGSLRLSCAASGRTFFPNAMGWYRPAPAKERELVAAITNGDSTHYADSVKGRFTISRDNAKNTVYLQMNSLKPEDTAVYYCAAEDHYEGYGGYYWGQGTQVTVSS
polyreactivity (PSR sort gate): low polyreactivity

QVQLVESGGGLVQAGGSLRLSCAASGSIFARYAMGWYRQAPGKERELVAAISSDGSTYYADSVKGRFTISRDNEKNTVYLQMNSLKPEDTAVYYCNTQFRYPQKYDYWGQGTQVTVSS
polyreactivity (PSR sort gate): high polyreactivity

QVQLVESGVGLVQAGGSLRLSCAASGIIFKVYAMGWYRQAPGKERELVAAISKSGGSTYYADSVKGRFTISRDNAKNTVYLQMNSLKPEDTAVYYCAARDYARYASYYYWGLGTQVTVSS
polyreactivity (PSR sort gate): high polyreactivity

QVQLVESGGGLVQAGGSLRLSCAASGFTFWRYAMGWSRQATGKERELVAVITWSGTRTYYADSVKGRFTISRDNAKNTVYLQMNSLKPEDTAVYYCAAYITDVAGRAYDYWGQGTQVTVSS
polyreactivity (PSR sort gate): high polyreactivity

QVQLVESGGGLVQAGGSLRLSCAASGSTFVTYAMGCYRQAPGKERELVAVITYSGGNTYYADSVKGRVTISRDNAKNTVYLQMNSLKPEDTAVYDCAAAWLTSRGSRDSHRKYYYWGQGTQVTVSS
polyreactivity (PSR sort gate): high polyreactivity

QVQLVESGGGLVQAGGSLRLSCAASGFTFSAYAMGWYRQAPGKERELVAAISRRGGSTYYADSVKGRFTISRDTAKNTVYLQMNSVKPEDTAVYYCATDYPPGYDYWGQGTQVSVSS
polyreactivity (PSR sort gate): high polyreactivity

QVQLVESGGGLVQAGGSLRLSSAASGRTFPHYAMGWYRQAPGKERELVAAISSSGGSTYYADSVKGRFTISRDNAKNTVYLQMNSLKPEETAVYSCAARYVDDGWKYAYWGQGTQVTVSS
polyreactivity (PSR sort gate): low polyreactivity
